The RNAGym collection of RNA variant scans (doi:10.7554/elife.80360)

B1: HDV Ribozyme (parent)
chain: GGCCGGCAUGGUCCCAGCCUCCUCGCUGGCGCCGGCUGGGCAACAUUCCGAGGGGACCGUCCCCUCGGUAAUGGCGAAUGGGACCCA

Variants of: B1
Assay: self-cleavage, relative activity (ratio to wild type); higher = more cleavage; co-transcriptional

Variant	self-cleavage
GGCCGGCAUGGUCCCAGCCUCCUCGCUGGCUCCGGCUGGGCAACAUUCCGAGGGGACCGUCCCCUCGGCAAUGGCGAAUGGGACCCA [G31U U69C]	0.396
GGCCGGCAUGGUCCCAGCCUCCUCGCUGGCGCCGGCUGGGCAACAUUCCGAGGGGUCCGUCCGCUCGGUAAUGGCGAAUGGGACCCA [A56U C63G]	0.815
GGCCGGCAUGGUCCCAGCCUCCUCGCUGGCGCCGGCUGGGCAACAUUCCGAGUAGACCGUCCCCUCGGUAAUGGCGAAUGGGACCCA [G53U G54A]	0.758
GGCCGGCAUGGUCCCAGCCUCCUCGCUGGCUCCGGCUGGGCAACAUUACGAGGGGACCGUCCCCUCGGUAAUGGCGAAUGGGACCCA [G31U C48A]	0.401
GGCCGGCAUGGUCCCAGCCUGCUCGCUGGUGCCGGCUGGGCAACAUUCCGAGGGGACCGUCCCCUCGGUAAUGGCGAAUGGGACCCA [C21G C30U]	0.0308
GGCCGGCAUGGUCCCAGCCUCCUCGCUGGCGCCCGCUGGGCAACAUUCCGAGGGGACCGUCUCCUCGGUAAUGGCGAAUGGGACCCA [G34C C62U]	0.262
GGCCGGCAUGGUCACAGCCUCCUCGAUGGCGCCGGCUGGGCAACAUUCCGAGGGGACCGUCCCCUCGGUAAUGGCGAAUGGGACCCA [C14A C26A]	0.966
GGCCGGGAUGGUCCCAGCCUCCUCGCUGGCGCCGGCUGGGCAACAUUCCGAGGGGACCGUCCCGUCGGUAAUGGCGAAUGGGACCCA [C7G C64G]	0.111
GGCCGGCAUGUUCCCAGCCUCCUCGCUGGCGCCGGCUGGGCAACAUUCCGAGGGUACCGUCCCCUCGGUAAUGGCGAAUGGGACCCA [G11U G55U]	0.436
GGCCGGCAUGGUCCCAGCCUCCUCGCUGGCGCCGGCUGGGCAACAUUCCGGGGGGACCGUCCCCUCGGUAAUUGCGAAUGGGACCCA [A51G G73U]	0.397
GGCCGGCAUGGUCCCAGCCUUCUCGCUGGCGCCGGCUGGGCAUCAUUCCGAGGGGACCGUCCCCUCGGUAAUGGCGAAUGGGACCCA [C21U A43U]	0.13
GGCCGGCAUGGUCCCAGCCUUCUCGCUGGCGCCGGCUGGGCAACAUUCCGAGGGGACCGUCCCCUCGGUAAUGACGAAUGGGACCCA [C21U G74A]	0.149
GGCCGGCAUGGUCCCAGCCUCCUCGCUGGCGCCGGCUGGGCAACAUUCCGAGGGGACCGUCCCCUCGGUAAAGGCGAAUGGGAACCA [U72A C84A]	0.639
GGCCGGCAUGGUCCCAGCCUCCUCCCUGGCGCCGGCUGGGCAACAUUCCGAGGGGACCGUCCCCUAGGUAAUGGCGAAUGGGACCCA [G25C C66A]	0.0627
GGCCGGCAUGGUCCGAGCCUCCUCGCUGGCGCCGGCUGAGCAACAUUCCGAGGGGACCGUCCCCUCGGUAAUGGCGAAUGGGACCCA [C15G G39A]	0.341
GGCCGGCAUGGUCCAAGGCUCCUCGCUGGCGCCGGCUGGGCAACAUUCCGAGGGGACCGUCCCCUCGGUAAUGGCGAAUGGGACCCA [C15A C18G]	0.111

Variant	self-cleavage
GGCCGGCAUGGUCCCAGCCUCCUCGCUGUCGCCGGCUGGGCAACAUUCCGAGGGGACCGUCCCCUCUGUAAUGGCGAAUGGGACCCA [G29U G67U]	0.0817
GGCCGGCAUGGUCCCAGCCUCCUCGCUGGCGCCGGCUGGGUAACAUUCCGAGGGGACAGUCCCCUCGGUAAUGGCGAAUGGGACCCA [C41U C58A]	0.962
GGCCGGCAUGGUCCUAGCCUCCUCGCUGGCGCCGGCUGGGCAACAUUCCGAGGGGACCGUCCCCUCGGUAAUGGCGAAUGGGACCCG [C15U A87G]	1.05
GACCGGCAUGGUCCCACCCUCCUCGCUGGCGCCGGCUGGGCAACAUUCCGAGGGGACCGUCCCCUCGGUAAUGGCGAAUGGGACCCA [G2A G17C]	0
GGCCGGCAUGCUCCCAGCCUCCUCGCUGGCGCCGGCUGGGCAACAUUCCGAGGGGACCGUCACCUCGGUAAUGGCGAAUGGGACCCA [G11C C62A]	0.475
GGCCGGCAUGGUCCCAGCCUCCUCGCUGGCGCCGGCUGGGCAACAUUCCGAAGGGACCGUCCCCUCGGUAAUGGCGAAUAGGACCCA [G52A G80A]	0.386
GGCCGGCAUGUUCCCAGCCUCCUCGCUGGCGCCGGCUGGGCAACAUUCCGAGUGGACCGUCCCCUCGGUAAUGGCGAAUGGGACCCA [G11U G53U]	0.385
GCCCGGCAUGGUCCCAGCCUCCUCGCUGGCGCCGGCUGGGCAACAUUCCGAGGGGACCGUCCCCUCGGUGAUGGCGAAUGGGACCCA [G2C A70G]	0
GGCCGGCAUGGUCCCAGCCUCCUCGCUGGCGCCGGCUGGGAAACAUUCCGAGGGGACCGUCCCUUCGGUAAUGGCGAAUGGGACCCA [C41A C64U]	0.831
GGCCGGCAUGGUCCCAGCCUCCUCGCUGGCUCCGGCUGGGCAACAUUCCGAGGGGACCGUCCUCUCGGUAAUGGCGAAUGGGACCCA [G31U C63U]	0.41
GGUCGGCAUGGUCCCAGCCUCCUCGCUGGCGCCGGCUGGGCAACAUUCCGAGGGGACCGUCUCCUCGGUAAUGGCGAAUGGGACCCA [C3U C62U]	0.762
GGCCCGCAUGGUCCCAGCCUCCUCGCUGGCGCCGGCUGGGCAACAUUCCGAGGGAACCGUCCCCUCGGUAAUGGCGAAUGGGACCCA [G5C G55A]	0.175
GGCCGGCAUGGUCCCAGACUCCUCGCUGGCGCCGGCUGGGCAACAUUCCGAGGGGACCGUCCCCUCGGUAAUGGCGAAUGGGACCGA [C18A C86G]	0.185
GGCCGGCAUGGUCCCAGCCUCCUCGCUGGCGCCGGCUGGGCAACAUUCCGAGGGGACCGUCCCCUCGGAAAUGGCGAAUGGGACCAA [U69A C86A]	1
GGCCGGCAUGGUCCCAGCCUCCUCGCUGGCGCCGGCUGGGCAACAUUCCGAGGGUACCGUCCCCUCGGUAAUGGCGAAUGGGAGCCA [G55U C84G]	0.546
GGCCGGCAUGGUCCCAGCCUCCUCGCUGGCGCCGGCUGGGCAAGAUUCCGACGGGACCGUCCCCUCGGUAAUGGCGAAUGGGACCCA [C44G G52C]	0.724
